Where a chain is given by its changes, count along the chain named. Numbers in names are those of the source.
T1: NBD-ZPI–PZ interactions (Homo sapiens, UniProt Q9UK55, C190A/C285S/K260C)
T1 construct: made in house; host or cells: Escherichia coli
T1 sequence (Q9UK55 22-444 C190A/K260C/C285S): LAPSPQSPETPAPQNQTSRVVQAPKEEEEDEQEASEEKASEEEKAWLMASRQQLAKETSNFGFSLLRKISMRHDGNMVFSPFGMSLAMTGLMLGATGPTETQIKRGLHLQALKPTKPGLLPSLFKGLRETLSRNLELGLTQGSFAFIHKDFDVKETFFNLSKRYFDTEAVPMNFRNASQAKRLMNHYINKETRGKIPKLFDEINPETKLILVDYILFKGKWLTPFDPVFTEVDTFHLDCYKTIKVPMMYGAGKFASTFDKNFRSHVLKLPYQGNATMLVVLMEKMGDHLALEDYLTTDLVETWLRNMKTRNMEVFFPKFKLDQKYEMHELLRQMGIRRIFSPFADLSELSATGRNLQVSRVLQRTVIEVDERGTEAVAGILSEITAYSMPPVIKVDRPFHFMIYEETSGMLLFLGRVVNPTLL

T2: K239C-NBD-ZPI (Homo sapiens, UniProt Q9UK55, C190A/C285S/K260C)
T2 construct: made in house; host or cells: Escherichia coli
T2 sequence (Q9UK55 22-444 C190A/K260C/C285S): T1 sequence (Q9UK55 22-444 C190A/K260C/C285S)

B1: R263A: ZPI helix H site mutant (protein, UniProt Q9UK55 22-444, looked up, variant R263A)
Protein Z-dependent protease …: T1 sequence (Q9UK55 22-444 C190A/K260C/C285S) with A169C, C239K, R263A, S264C

Experiments:
[1] = target: T1, NBD-ZPI–PZ interactions; assay: Titrations of NBD-ZPI with PZ in absence and presence of fixed levels of heparin; type: binding; conditions: no heparin; 50 nM NBD-ZPI, 0.2 M NaCl buffer; read-out: ZPI–PZ KD,PZapp
Method: The effect of heparin on PZ binding to ZPI was measured by titrations of 50 nM NBD-ZPI with PZ in the absence and presence of different fixed levels of heparins of various lengths in the higher ionic strength buffer used for emission spectra. Titrations were monitored from the enhancement of NBD-ZPI fluorescence that signals PZ binding. These titrations were fit by the quadratic binding equation, ΔFobs/F0=ΔFmax/F0×[ZPI]0+[PZ]0+KD,PZapp−([ZPI]0+[PZ]0+KD,PZapp)^2−4×[ZPI]0×[PZ]0/2×[ZPI]0 where ΔFobs/Fo and ΔFmax/Fo are the observed and maximal fluorescence changes after addition of PZ expressed relative to the initial free NBD-ZPI fluorescence, respectively, and KD,PZapp = KD,PZ × (1 + [H]o/KD,H) is the apparent dissociation constant for the ZPI–PZ interaction in the absence or presence of heparin. The fitted parameters were KD,PZapp and ΔFmax/Fo.

[2] = target: T2, K239C-NBD-ZPI; assay: Fluorescence emission spectra of K239C-NBD-ZPI with PZ and heparin; type: binding; conditions: saturating PZ added to NBD-labeled ZPI
Method: Fluorescence emission spectra of NBD-ZPI (50–100 nM) were measured in the absence or the presence of PZ and heparin in 20 mM Tris buffer (pH 7.4), 0.2 M NaCl, 0.1% PEG 8000, 1 mg/ml bovine serum albumin (BSA), and 2.5 mM CaCl2 with an SLM 8000 spectrofluorometer with excitation at 480 nm over the emission range of 500 to 600 nm. Intrinsic protein fluorescence of WT and mutant ZPIs (200 nM to 1 μM) was measured in the same buffer without BSA, with excitation at 280 nm over the emission range of 300 to 400 nm. Emission was monitored in 5-nm steps with 5 to 10 s of integrations per step. Spectra were obtained in triplicate and averaged. Buffer, buffer plus PZ, or buffer plus heparin background spectra were subtracted, and dilution corrections were made for added PZ or heparin (<10%).

[3] = target: T3, FXa (Homo sapiens, UniProt P00742); assay: H50 heparin-accelerated ZPI–FXa reactions: kinetics and stoichiometry of inhibition; type: biochemical
T3 construct: purchased Enzyme Research Laboratories
In short: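 Pseudo-first-order inhibition of ~0.5 nM FXa by ZPI (70 nM for H50 titration 10^−9–10^−4 M; 10–900 nM for ka,app) at 25 °C, pH 7.4 Tris with 2.5 mM CaCl2; residual activity by fluorogenic substrate, ka,app from kobs vs [ZPI] with kd fixed at 10^−4 s^−1. SI from residual activity vs ZPI:FXa ratio (50–100 nM FXa, ±1 μM H50), dissociation-corrected.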

[4] = target: T3, FXa; assay: Unaccelerated ZPI–FXa reactions: kinetics and stoichiometry of inhibition; type: biochemical
In short: (§1)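 Human FXa (∼0.5 nM) with ZPI 10–900 nM, ± optimal H50, pseudo-first-order; PZ-accelerated runs used PZ equimolar with ZPI, 25 μM lipid, 5 mM CaCl2, ZPI 10–40 nM. Residual activity via substrate-quench initial rates; ka,app from kobs vs [ZPI] slope, kd fixed at 10^−4 s^−1. SI from residual activity vs inhibitor:protease ratio (FXa 50–100 nM, 25 °C), dissociation-corrected.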

[5] = target: T3, FXa; assay: PZ-accelerated ZPI–FXa reactions: kinetics and stoichiometry of inhibition; type: biochemical
In short: as §1

T3 sequence (P00742 235-488 limits assumed): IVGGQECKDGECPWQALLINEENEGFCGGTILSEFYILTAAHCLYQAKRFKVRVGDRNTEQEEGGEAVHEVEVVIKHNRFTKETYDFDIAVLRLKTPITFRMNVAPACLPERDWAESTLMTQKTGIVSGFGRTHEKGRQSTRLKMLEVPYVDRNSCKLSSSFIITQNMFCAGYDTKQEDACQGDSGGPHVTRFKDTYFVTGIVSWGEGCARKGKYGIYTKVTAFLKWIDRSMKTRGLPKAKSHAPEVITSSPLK
T3 sequence (P00742 41-179 limits assumed): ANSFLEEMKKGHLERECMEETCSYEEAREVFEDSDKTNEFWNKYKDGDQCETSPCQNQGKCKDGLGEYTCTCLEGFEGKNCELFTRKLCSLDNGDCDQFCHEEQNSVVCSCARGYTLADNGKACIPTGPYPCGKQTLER

Molecule	Kd [1]	enhancement in NBD fluorescence [2]	SI ([3]; 1 μM H50)	ka,app × SI ([3]; 1 μM H50)	ka,app × SI relative to WT ([3]; 1 μM H50)	ka,app ([3]; 1 μM H50, 2.5 mM CaCl2, pH 7.4, 25 °C)	H50 rate enhancement ([3]; ratio of heparin-accelerated to unaccelerated ka,app × SI)	SI [4]	ka,app × SI [4]	ka,app × SI relative to WT [4]	ka,app ([4]; absence of PZ, 2.5 mM CaCl2, pH 7.4, 25 °C)	SI ([5]; PZ-accelerated)	ka,app × SI ([5]; PZ-accelerated)	ka,app × SI relative to WT ([5]; PZ-accelerated)	ka,app ([5]; equimolar PZ, 25 μM phospholipid, 5 mM CaCl2, pH 7.4, 25 °C)	PZ enhancement ([5]; ratio of PZ-accelerated to unaccelerated ka,app × SI)
PZ: human plasma protein Z, cofactor of ZPI, from Enzyme Research Laboratories	9 ± 1.2 nM	~300%	–	–	–	–	–	–	–	–	–	–	–	–	–	–
B1	–	–	2.8 ± 0.1 moles ZPI/mole FXa	3.5 ± 0.4 × 10^5 M^−1 s^−1	(0.29)	1.3 ± 0.1 × 10^5 M^−1 s^−1	55 fold	2.7 ± 0.5 moles ZPI/mole FXa	6.4 ± 1.3 × 10^3 M^−1 s^−1	(0.40)	2.4 ± 0.1 × 10^3 M^−1 s^−1	3.1 ± 0.1 moles ZPI/mole FXa	2.1 ± 0.2 x 10^7 M^−1 s^−1	(0.48)	6.9 ± 0.5 × 10^6 M^−1 s^−1	3359

Reference: paper PMC9190012, “Heparin activation of protein Z-dependent protease inhibitor (ZPI) allosterically blocks protein Z activation through an extended heparin-binding site” (The Journal of Biological Chemistry, 2022)
